According to patent publication US7601803 (SCIL PROTEINS, dated 2009):

Target: T1, BSA (UniProt P02769 25-607)
T1 construct: Unconjugated carrier protein used as the control antigen
Experiment: concentration-dependent ELISA, BSA coated at 20 µg/ml, detected with tetra-His antibody
Protocol: Specific binding of mutant 12A to the BSA-estradiol-17-hemisuccinate conjugate was assayed by carrying out an ELISA, with increasing concentrations of purified mutant 12A-His-Tag protein being used. Increasing amounts of gamma-II-crystalline wild-type (likewise with His-Tag) were used as control, and binding of both purified proteins to BSA was assayed. The concentration-dependant ELISA was carried out using NUNC-Tm plates. Antigen coating with the BSA-estradiol-17-hemisuccinate conjugate or with BSA was carried out at room temperature overnight. Coating was carried out with in each case 100 µl of antigen at a concentration of 20 µg/ml of PBS pH 7.6. After washing (2×PBS pH 7.6) and blocking the plates (3% Marvel/PBS at 37° C. for 2 h), in each case 1-13 µl of the protein stock solution (concentration 0.63 mg/ml) of purified Mu 12A or gamma-II-crystalline were introduced into a total 100 µl of reaction solution (PBS, 3% Marvel, x µl of protein) and incubated in the wells at 37° C. for 2 h. The secondary antibodies used were the tetra-His antibody from Qiagen in a dilution of 1:3000 and the anti-mouse POD antibody (Sigma) in a dilution of 1:2000. The antibodies were diluted with a 3% strength Marvel/PBS solution and 100 µl were added to the wells and incubated at 37° C. for in each case 1 h. […] No increase was detected using gamma-II-crystalline. […]

T1 sequence (P02769 25-607 limits assumed): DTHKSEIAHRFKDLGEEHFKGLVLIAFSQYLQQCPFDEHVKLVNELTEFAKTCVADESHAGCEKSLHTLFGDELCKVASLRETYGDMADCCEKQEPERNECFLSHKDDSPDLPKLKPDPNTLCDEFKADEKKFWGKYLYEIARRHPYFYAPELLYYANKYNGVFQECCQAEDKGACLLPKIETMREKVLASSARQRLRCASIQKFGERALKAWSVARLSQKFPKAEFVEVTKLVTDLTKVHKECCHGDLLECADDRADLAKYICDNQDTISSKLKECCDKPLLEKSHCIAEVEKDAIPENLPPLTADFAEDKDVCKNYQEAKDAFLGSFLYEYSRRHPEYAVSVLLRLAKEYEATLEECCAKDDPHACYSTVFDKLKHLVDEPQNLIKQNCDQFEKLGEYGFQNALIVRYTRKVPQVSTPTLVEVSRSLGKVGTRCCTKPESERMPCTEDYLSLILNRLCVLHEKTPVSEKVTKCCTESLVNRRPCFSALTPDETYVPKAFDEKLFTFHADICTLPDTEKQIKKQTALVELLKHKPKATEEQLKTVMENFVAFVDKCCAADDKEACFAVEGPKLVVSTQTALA

binding result: no binding
B1: bovine gamma-II-crystalline wild-type, purified His-Tag protein after expression in pET-20b (other)
chain: MGKITFYEDRGFQGHCYECSSDCPNLQPYFSRCNSIRVDSGCWMLYERPNYQGHQYFLRRGDYPDYQQWMGFNDSIRSCRLIPQHTGTFRMRIYERDDFRGQMSEITDDCPSLQDRFHLTEVHSLNVLEGSWVLYEMPSYRGRQYLLRPGEYRRYLDWGAMNAKVGSLRRVMDFYSDPNSSSVDKLAAALEHHHHHH
notes: Starting protein used as the control, likewise with His-Tag; also called WT; gamma-B-crystalline
